The target in data set [1] is SpRadA K101A point mutant (Streptococcus pneumoniae) (UniProt Q8DRP0). The experiment in a line: negative-stain electron microscopy.
Data set [2] concerns the target SpRadA helicase (Streptococcus pneumoniae RadA), full length (Streptococcus pneumoniae) (UniProt Q8DRP0). The experiment in a line: negative-stain electron microscopy.
A further data set has as its target SpRecA (Streptococcus pneumoniae, UniProt P0A452 1-388). The experiment in a line: fluorescence anisotropy. A general note: Polarisation of emitted light reports the rotation of a fluorescent probe.

Experimental findings from paper PMC10085707 are described below.

The term stoichiometry N denotes a count of units in the complex or per binding partner.

Consider “SpRadA K101A point mutant (from UniProt Q8DRP0 1-420) (enzyme)”, for which the stoichiometry N in data set [1] came to 6.

With “SpRadA helicase (Streptococcus pneumoniae RadA), full length (from UniProt Q8DRP0 1-420) (enzyme)”, the stoichiometry N in data set [2] turned out to be 6.

B1: T65 (polydT 65-mer) (ssDNA)
DNA: TTTTTTTTTTTTTTTTTTTTTTTTTTTTTTTTTTTTTTTTTTTTTTTTTTTTTTTTTTTTTTTTT
Regarding B1, in the data set with SpRecA, the binding result is given as “binds”.
